Measured values as given in US5574007A, “Polypeptide capable of interacting with thrombin” (Asahi Kasei Kogyo Kabushiki Kaisha, priority 1990, dated 1996).
pKi: −log10 of the molar value. Positions of bridges follow the written chain, without caps; N, C: chain ends. Residues, ends and D or L forms follow the SMILES beside them.

Tests used:
[1] = target: binding of thrombin to thrombomodulin (Homo sapiens, UniProt P00734); assay: Activity of synthetic peptides to inhibit the binding of thrombin to thrombomodulin (Dixon plot); settings: D123Asp-coated plate, crosslinked synthetic peptide
Protocol: The acitvity of each of the synthetic peptides to inhibit the binding of thrombin to thrombomodulin is determined by the following method. D123Asp purified in Example 1-(4)-(b) is diluted with 0.1M sodium bicarbonate buffer (pH 9.2) so that the final concentration of D123Asp becomes 1.5 μg/ml. 100 μl of the diluent is dispensed to each well of a flat-bottomed 96 well-microtiter plate for ELISA. The plate is allowed to stand for 3 hours, and then each well is washed with 0.1M sodium bicarbonate buffer (pH 9.2). 150 μl of 50 mM Tris-HCl buffer (pH 7.5) containing 0.1M NaCl and 1% BSA is dispensed to each well, and the plate is allowed to stand for 2 hours so that each well is subjected to blocking. To each well of the plate is added a solution obtained by reacting thrombin (0 to 0.4 μg/μl), which has been diluted with a washing solution {50 mM Tris-HCl buffer (pH 7.5) containing 0.5% BSA and 0.05% Tween-20}, with various concentrations of the synthetic peptide solutions at 37° C. for 30 minutes, and a reaction is conducted at room temperature for 1 hour. The plate is washed again with the above-mentioned washing solution. To each well of the plate is added 100 μl of 50 mM Tris-HCl buffer (pH 8.0) containing 0.1M NaCl, in which 200 μM H-D-Phe-Pip-Arg-pNA (Kabi Virum, Sweden, catalog No. S2238) has been dissolved, to thereby liberate pNA (paranitroanilin). A few hours later, the absorbance of the liberated pNA is measured at a wavelength of 410 nm. To determine the inhibition constant (Ki) of each of the synthetic peptides, 100/v in which v represents the thrombin activity (expressed in %) at the time when a peptide having a predetermined concentration is added, assuming the thrombin activity in the absence of a peptide as 100%, is plotted in rectangular coordinates against the concentration of the peptide to-obtain a graph (Dixon plot). The inhibition constant (Ki) is defined as the reading of the intersection of the plotted line with the abscissa.

[2] = target: T1, thrombin-catalyzed activation of GDPC (protein C having no Gla domain) (Homo sapiens, UniProt P00734); assay: Same assay with protein C having no Gla domain (GDPC) instead of protein C; type: biochemical; settings: calcium ion concentrations of 0 to 5 mM
T1 construct: 3 μl of thrombin (manufactured and sold by Sigma Chemical Company, catalog No. T-6759, 20 ng/μl); purchased Sigma Chemical Company T-6759
Protocol: (§1) With respect to the polypeptide solutions (0.4 μg/ml) purified and quantitated in Example 1-(5)-(d), the activity of polypeptides to promote the thrombin-catalyzed activation of protein C is measured according to the method described in Example 1-(3). The CaCl2 concentration of 10×Assay buffer is adjusted so that the activities at calcium ion concentrations of 0 to 5 mM are determined. Also, with respect to protein C having no Gla domain (hereinafter referred to as "GDPC") which is prepared by chymotrypsin treatment according to the method of N. L. Esmon [J. Biol. Chem. Vol. 258, pp. 5548-5553 (1983)]and which is used instead of protein C, the activity measurement is carried out within the same range of calcium concentration.

[3] = target: T2, thrombin-catalyzed activation of protein C (Homo sapiens, UniProt P00734); assay: Assay of the activity to promote the thrombin-catalyzed activation of protein C (Example 1-(3), fluorogenic substrate Boc-Leu-Ser-Thr-Arg-MCA); type: biochemical, bovine; parameters: 3 μl of thrombin (manufactured and sold by Sigma Chemical Company, catalog No. T-6759, 20 ng/μl); purchased Sigma Chemical Company T-6759; settings: for activity to promote the thrombin-catalyzed activation of protein C (in words): purified polypeptide from COS-1, calcium ion concentrations of 0 to 5 mM
Protocol: 5 μl of the supernatant of the culture of COS-1 cells is transformed by each of plasmids pSV2TMD7 and pSV2TMD8, 3 μl of thrombin (manufactured and sold by Sigma Chemical Company, catalog No. T-6759, 20 ng/μl), 5 μl of 10×Assay Buffer containing 1M NaCl, 30 mM CaCl2, 1% calf serum albumin and 0.5M tris-HCl buffer (pH 8.5) and 29.5 μl of distilled water are mixed together and allowed to stand at 37° C. for 5 minutes, followed by the addition of 7.5 μl protein C (derived from bovine, 0.2 μg/μl) to the mixture. The reaction is conducted at 37° C. for 30 minutes, and terminated by adding 6.25 μl of a stop solution (20 mM tris-HCl buffer, pH7.5, containing 100 mM NaCl, 0.3A280 anti-thrombin III and 100 μg/ml heparin).
The activity of activated protein C is measured by first adding 10 μl of Boc-Leu-Ser-Thr-Arg-MCA (manufactured and sold by Peptide Institute, The Foundation (Japan), 5 mg/ml), 5 μl of 5M CsCl and 495 μl of a substrate reaction buffer (50 mM tris-HCl buffer containing 100 mM NaCl (pH 8.5)), next allowing the reaction to proceed at 37° C. for 20 minutes, then terminating the reaction by adding 55 μl of acetic acid, and finally measuring the concentration of liberated AMC ([…]) by means of a spectrofluorometer (model RF-540, manufactured and sold by Shimadzu Corporation, Japan) at an excitation wavelength of 380 nm and an emission wavelength of 440 nm. The obtained fluorescence intensity is compared with the fluorescence intensity of a solution having a known AMC concentration to determine the amount of the liberated AMC. The value obtained by deducting from this amount the amount of AMC in the case where an aqueous solution containing no polypeptide of the present invention is added, represents the activity of the polypeptide to promote the thrombin-catalyzed activation of protein C. The activity to produce 1 nM of activated protein C per ml of reaction mixture and per minute is defined as 1 u (unit).
as §1

[4] = target: T2, thrombin-catalyzed activation of protein C; assay: Activated protein C formation against reaction time with purified polypeptide (Example 4-(6)); type: biochemical
Protocol: To 0.02M Tris-HCl buffer (pH 8.5) containing 0.1M NaCl, 0.5 mM CaCl2 and 10 mg/ml BSA are added 50 μg/ml protein C, 5 nM thrombin and 5 nM of each of the purified polypeptides of the present invention, and reacted at 37° C. To each of the reaction mixtures are added 300 μg/ml antithrombin III (manufactured and sold by Sigma Chemical Company, U.S.A.) and 5 mM EDTA to terminate the reaction. Then, the amount of the activated protein C produced by the reaction is determined by the method described in Example 1-(3) in which a synthetic substrate is used.

[5] = system: thrombin-catalyzed platelet aggregation; assay: Platelet aggregation-inhibiting activity (Platelet Rich Plasma, HEMA TRACER IV); type: cell-based; settings: polypeptide purified from Acremonium chrysogenum (Example 6(4))
Protocol: The activity of each of the polypeptides of the present invention to inhibit the thrombin-catalyzed platelet aggregation is evaluated using platelet aggregation measuring apparatus HEMA TRACER IV (manufactured and sold by NIKO Bioscience, Inc., Japan). Measurement is carried out according to the manual attached thereto. When 40 μl of a 20 NIH unit/ml thrombin solution (manufactured and sold by SIGMA Chemical Co., U.S.A., T 6759) is added to 180 μl of a Platelet Rich Plasma (PRP) platelet solution (3×10^5 cells/μl) and incubated, the aggregation of platelets occurs. […] The aggregation of platelets is determined on the basis of the transparency, assuming the transparency of Platelet Poor Plasma (PPP) solution as 100%. The ratio of platelet aggregation is plotted against the incubation time (0 min: the time when thrombin or a mixture of thrombin and one of the polypeptides is added to the PRP solution). It is confirmed that the platelet aggregation is inhibited when one of the polypeptides of the present invention is added.

[6] = target: thrombin-catalyzed conversion of fibrinogen to fibrin (Homo sapiens, UniProt P00734); assay: Anticoagulating activity: clotting time of a fibrinogen solution; type: biochemical; settings: polypeptide purified from Acremonium chrysogenum (Example 6(4))
Protocol: The activity of each of the polypeptides of the present invention to inhibit the thrombin-catalyzed conversion of fibrinogen to fibrin so as to inhibit blood coagulation, is determined by measuring clotting time using Coagulometer KC-10A (manufactured and sold by Heinrich Amelung A.G., Germany). Illustratively stated, to 0.05M Tris-HCl buffer (pH 7.5) containing 5 mM CaCl2 and 0.1M NaCl is added 3.0 μg of fibrinogen (Fraction I, manufactured and sold by Sigma Chemical Company, U.S.A.). To the resultant mixture is added 0 to 50 nM of each of the purified polypeptides of the present invention. Then, 10 nM thrombin is added to the mixture in such an amount that the total amount of the mixture becomes 0.4 ml, and then the coagulation time of the mixture is measured.

Molecule: CSCC[C@H](N)C(=O)N[C@@H](Cc1ccccc1)C(=O)N[C@H]1CSSC[C@@H](C(=O)N[C@@H](CC(=O)O)C(=O)O)NC(=O)[C@H](CC(=O)O)NC(=O)[C@H](C)NC(=O)[C@@H]2CCCN2C(=O)[C@H](C)NC(=O)[C@H](C)NC(=O)[C@H]([C@@H](C)O)NC(=O)[C@H](CCC(N)=O)NC(=O)[C@H](CC(N)=O)NC1=O [Polypeptide A, Met-Phe-Cys-Asn-Gln-Thr-Ala-Ala-Pro-Ala-Asp-Cys-Asp] (H-MFCNQTAAPADCD-OH; disulfide 3-12)
- Inhibition constant (Ki) [1]: no inhibiting activity

Molecule: C[C@H](N)C(=O)N[C@H]1CSSC[C@@H](C(=O)N[C@@H](CCC(=O)O)C(=O)O)NC(=O)[C@H](CO)NC(=O)[C@H](C)NC(=O)[C@H](CCC(N)=O)NC(=O)[C@H]([C@@H](C)O)NC(=O)[C@H](CC(N)=O)NC(=O)[C@@H]2CCCN2C(=O)[C@H](CC(=O)O)NC(=O)[C@H](C)NC(=O)[C@H](CC(=O)O)NC(=O)[C@H](C)NC(=O)[C@@H]2CCCN2C1=O [Polypeptide B, Ala-Cys-Pro-Ala-Asp-Ala-Asp-Pro-Asn-Thr-Gln-Ala-Ser-Cys-Glu] (H-ACPADADPNTQASCE-OH; disulfide 2-14)
- Inhibition constant (Ki) [1]: no inhibiting activity

Molecule: CC[C@H](C)[C@H](NC(=O)[C@H](CC(=O)O)NC(=O)[C@@H](NC(=O)[C@@H]1CSSC[C@H](NC(=O)[C@@H](N)CCC(=O)O)C(=O)N2CCC[C@H]2C(=O)N[C@@H](CCC(=O)O)C(=O)NCC(=O)N[C@@H](Cc2ccc(O)cc2)C(=O)N[C@@H]([C@@H](C)CC)C(=O)N[C@@H](CC(C)C)C(=O)N[C@@H](CC(=O)O)C(=O)N[C@@H](CC(=O)O)C(=O)NCC(=O)N[C@@H](Cc2ccccc2)C(=O)N[C@@H]([C@@H](C)CC)C(=O)N1)[C@@H](C)O)C(=O)N[C@@H](CC(=O)O)C(=O)N[C@@H](CCC(=O)O)C(=O)O [Polypeptide C, Glu-Cys-Pro-Glu-Gly-Tyr-Ile-Leu-Asp-Asp-Gly-Phe-Ile-Cys-Thr-Asp-Ile-Asp-Glu] (H-ECPEGYILDDGFICTDIDE-OH; disulfide 2-14)
- pKi ([1]; read-out: Inhibition constant (Ki)): 4.02

Molecule: D123Ala: polypeptide up to the 516th position of human thrombomodulin wherein the 367th Asp is changed to Ala (pSV2TMM1)
- activity in the activation of GDPC (in words) [2]: low activity
- activity to promote the thrombin-catalyzed activation of protein C (in words) [3]: low activity

Molecule: D123Glu: polypeptide up to the 516th position of human thrombomodulin wherein the 367th Asp is changed to Glu (pSV2TMM2)
- activity relative to that of D123Asp ([3]; activation of protein C): 1.2 times
- activity to promote the thrombin-catalyzed activation of protein C (in words) [3]: activity similar to that of D123Asp

Molecule: E456Glu: 367th to 480th amino acid residues of human thrombomodulin in which the 367th Asp is replaced by Glu (pSV2TMM3)
- amount of activated protein C with reaction time (in words) ([4]; 5 nM polypeptide, 5 nM thrombin, 50 μg/ml protein C, 37° C., polypeptide from COS-1 or CHO cells): increased with the lapse of reaction time
- amount of activated protein C with reaction time (in words) ([4]; polypeptide purified from Acremonium chrysogenum strains D71 and M31 (Example 6(4))): increased with the lapse of reaction time
- thrombin-catalyzed platelet aggregation (in words) [5]: inhibited
- activity relative to that of E456Asp ([3]; activation of protein C): 1.3 times
- clotting time of fibrinogen solution against amount of polypeptide (in words) [6]: the longer the clotting time
